pKd: −log10 of the molar value.
How the values were obtained:
[1] = target: SLAM (Canis lupus familiaris) (UniProt Q95MM9); conditions: cited from earlier work
[2] = target: head domain of measles virus hemagglutinin, Edmonston vaccine strain (measles virus, Edmonston strain) (UniProt P08362); test: SPR
[3] = target: head domain of measles virus hemagglutinin, IC-B wild-type strain (measles virus, IC-B strain) (UniProt Q786F2); test: SPR
Chain of UniProt Q786F2 (Q786F2 149-617): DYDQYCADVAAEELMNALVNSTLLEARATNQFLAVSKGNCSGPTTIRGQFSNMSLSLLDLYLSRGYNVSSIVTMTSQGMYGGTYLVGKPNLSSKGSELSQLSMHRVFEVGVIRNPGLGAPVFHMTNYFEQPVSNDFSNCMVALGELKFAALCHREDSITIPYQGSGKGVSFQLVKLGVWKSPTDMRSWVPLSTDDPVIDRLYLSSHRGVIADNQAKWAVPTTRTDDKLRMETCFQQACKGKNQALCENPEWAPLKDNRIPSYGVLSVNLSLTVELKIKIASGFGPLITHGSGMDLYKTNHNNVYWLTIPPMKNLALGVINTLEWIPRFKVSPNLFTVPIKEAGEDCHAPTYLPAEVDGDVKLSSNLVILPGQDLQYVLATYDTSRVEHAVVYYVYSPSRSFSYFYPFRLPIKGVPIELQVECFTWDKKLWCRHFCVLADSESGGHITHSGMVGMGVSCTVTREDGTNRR

Chain of UniProt P08362 (P08362 149-617): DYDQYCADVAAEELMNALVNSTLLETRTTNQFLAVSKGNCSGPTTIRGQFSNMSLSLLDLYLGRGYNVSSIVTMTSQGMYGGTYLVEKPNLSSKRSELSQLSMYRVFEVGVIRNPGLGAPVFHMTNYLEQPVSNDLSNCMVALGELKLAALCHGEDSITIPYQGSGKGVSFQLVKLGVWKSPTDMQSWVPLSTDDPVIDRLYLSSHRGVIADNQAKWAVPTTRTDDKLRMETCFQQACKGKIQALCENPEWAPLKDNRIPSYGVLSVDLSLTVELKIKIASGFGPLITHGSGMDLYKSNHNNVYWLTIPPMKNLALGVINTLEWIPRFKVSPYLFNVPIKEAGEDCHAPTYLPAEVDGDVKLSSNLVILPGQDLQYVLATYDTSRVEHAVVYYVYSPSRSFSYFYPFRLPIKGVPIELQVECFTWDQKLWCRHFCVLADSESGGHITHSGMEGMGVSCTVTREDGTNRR
Chain of UniProt Q95MM9 (Q95MM9 27-342): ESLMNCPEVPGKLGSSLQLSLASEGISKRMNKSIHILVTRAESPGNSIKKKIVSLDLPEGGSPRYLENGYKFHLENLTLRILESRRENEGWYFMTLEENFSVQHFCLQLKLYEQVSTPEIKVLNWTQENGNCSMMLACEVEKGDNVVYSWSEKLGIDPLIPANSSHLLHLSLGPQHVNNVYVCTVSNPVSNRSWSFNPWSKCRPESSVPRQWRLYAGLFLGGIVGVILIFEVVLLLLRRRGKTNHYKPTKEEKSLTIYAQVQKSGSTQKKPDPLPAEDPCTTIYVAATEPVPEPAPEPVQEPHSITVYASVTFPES

Substance | pKd [1] | pKd [2] | koff [2] | kon [2] | pKd [3] | koff [3] | kon [3]
CDV-A75/17 hemagglutinin (from UniProt Q65999) | 5.10 | – | – | – | – | – | –
soluble SLAM ectodomain (V-set and C2) from cotton-top tamarin (domain or fragment) | – | 7.33 | 0.000952 s⁻¹ | 20400 M⁻¹ s⁻¹ | 6.61 | 0.00241 s⁻¹ | 9890 M⁻¹ s⁻¹

— article PMC6722581
